The values that follow come from patent US6689567 (UNIVERSITY OF GUELPH, dated 2004).

The series concerns the molecule itself. The series can be described thus: gel filtration on G100 Sephadex; self-association (homodimer). (Size exclusion chromatography separates by hydrodynamic size, large species first.)

B1: FlaA1 from Helicobacter pylori carrying a N-terminal hexahistidine tag (enzyme)
chain: MHHHHHHGSMSMPNHQNMLDNQTILITGGTGSFGKCFVRKVLDTTNAKKIIVYSRDELKQSEMAMEFNDPRMRFFIGDVRDLERLNYALEGVDICIHAAALKHVPIAEYNPLECIKTNIMGASNVINACLKNAISQVIALSTDKAANPINLYGATKLCSDKLFVSANNFKGSSQTQFSVVRYGNVVGSRGSVVPFFKKLVQNKASEIPITDIRMTRFWITLDEGVSFVLKSLKRMHGGEIFVPKIPSMKMTDLAKALAPNTPTKIIGIRPGEKLHEVMIPKDESHLALEFEDFFIIQPTISFQTPKDYTLTKLHEKGQKVAPDFEYSSHNNNQWLEPDDLLKLL
notes: Full-length FlaA1 with an N-terminal hexahistidine tag, overexpressed in E. coli (pET system) and purified; also called HP0840; His-FlaA1
Consider B1, for which the binding result is “binds”.
